The target of test [1] is NL4-3/ADA gp140 trimer (hybrid: NL4-3 gp140 with the V3 spanning region of the R5 strain ADA) (HIV-1 (subtype B, strain NL4-3) | HIV-1 (subtype B, strain ADA)). Put plainly: negative-stain electron microscopy, single particle 3D reconstruction; purified trimers, ~0.02 mg/ml, 2% uranyl formate, about 3,000 particles per data set, C3 symmetry applied, resolution ~25 Å.
Test [2] deals with NL4-3 gp140 trimer (soluble, uncleaved gp140 from the X4 HIV-1 subtype B strain NL4-3) (HIV-1 (subtype B, strain NL4-3)). Described as above.

On to “NL4-3/ADA gp140 trimer (hybrid: NL4-3 gp140 with the V3 spanning region of the R5 strain ADA) (domain or fragment)”, for which, in test [1], the stoichiometry N (commonly a count of units in the complex or per binding partner) came out at 3.
Substance “NL4-3 gp140 trimer (soluble, uncleaved gp140 from the X4 HIV-1 subtype B strain NL4-3) (domain or fragment)” showed a stoichiometry N in test [2] of 3.
